The target in assay [1] is human serum albumin (HSA) (human) (UniProt P02768). Description: ELISA, HSA coated on plate, n = 3.
For assay [2], the target named is mouse serum albumin (MSA) (mouse) (UniProt P07724). Description: ELISA, MSA coated on plate, n = 3. For orientation: In an ELISA, binding on a coated surface is turned into a signal by an enzyme label.
Chain of UniProt P07724 (P07724 25-608 limits assumed): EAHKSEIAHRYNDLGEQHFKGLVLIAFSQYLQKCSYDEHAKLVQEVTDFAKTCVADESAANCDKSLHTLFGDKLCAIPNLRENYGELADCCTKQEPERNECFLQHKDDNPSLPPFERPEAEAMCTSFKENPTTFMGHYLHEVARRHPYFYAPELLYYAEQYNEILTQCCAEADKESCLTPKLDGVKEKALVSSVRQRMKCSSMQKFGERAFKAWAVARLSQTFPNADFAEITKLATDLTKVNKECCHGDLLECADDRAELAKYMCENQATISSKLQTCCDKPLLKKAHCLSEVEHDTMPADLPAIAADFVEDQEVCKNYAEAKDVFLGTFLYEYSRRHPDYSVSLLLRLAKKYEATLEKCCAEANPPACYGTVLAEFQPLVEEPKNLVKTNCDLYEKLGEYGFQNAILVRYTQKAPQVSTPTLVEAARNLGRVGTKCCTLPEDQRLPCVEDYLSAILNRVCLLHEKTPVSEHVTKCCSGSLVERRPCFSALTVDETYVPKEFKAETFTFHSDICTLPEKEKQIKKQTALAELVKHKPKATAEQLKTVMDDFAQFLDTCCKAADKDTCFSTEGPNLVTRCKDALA

Chain of UniProt P02768 (P02768 25-609 limits assumed): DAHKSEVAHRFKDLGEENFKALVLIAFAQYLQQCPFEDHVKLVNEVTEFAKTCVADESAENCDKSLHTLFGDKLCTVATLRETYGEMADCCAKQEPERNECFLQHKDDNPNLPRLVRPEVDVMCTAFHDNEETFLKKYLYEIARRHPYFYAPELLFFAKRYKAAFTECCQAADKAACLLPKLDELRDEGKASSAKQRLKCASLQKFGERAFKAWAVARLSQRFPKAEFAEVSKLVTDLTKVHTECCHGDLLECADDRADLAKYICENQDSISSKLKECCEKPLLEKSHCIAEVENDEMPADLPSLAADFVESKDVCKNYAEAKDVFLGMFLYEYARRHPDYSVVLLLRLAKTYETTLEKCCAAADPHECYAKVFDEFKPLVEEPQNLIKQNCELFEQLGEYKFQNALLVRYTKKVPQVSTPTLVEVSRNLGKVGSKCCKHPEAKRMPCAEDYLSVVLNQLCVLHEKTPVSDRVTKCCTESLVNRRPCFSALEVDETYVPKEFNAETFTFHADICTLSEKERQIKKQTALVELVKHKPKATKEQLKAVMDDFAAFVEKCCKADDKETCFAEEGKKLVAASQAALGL

For the substance SS1-ABD-dsFv-PE38 (LMB-209), the Affinity in assay [1] was 0.11 nM; in assay [2] it was 0.16 nM.

Values taken from US20240132619A1.
